{"source": "paper PMC6430473", "biological_target": "T1, Clp (Xanthomonas campestris pv. campestris 8004) (UniProt Q4UZF6)", "T1 sequence": "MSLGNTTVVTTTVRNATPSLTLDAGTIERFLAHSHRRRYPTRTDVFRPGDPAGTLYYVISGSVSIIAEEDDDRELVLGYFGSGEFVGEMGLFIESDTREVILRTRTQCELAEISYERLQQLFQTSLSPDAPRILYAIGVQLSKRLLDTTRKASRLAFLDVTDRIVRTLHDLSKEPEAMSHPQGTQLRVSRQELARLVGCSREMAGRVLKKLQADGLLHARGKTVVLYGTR", "assay": "EMSA", "data": [{"sequence": "AGCTGAAGGCCGGCCCGGCGGCCAGTGCGAGGGCGGTGGCCAAAGCGAGCGTGCTTGCGGTCCTGAATATGGACATGGTGATCTCCCTAGAGAACCGGGCTCGACACCCGAGCGCGGTAAGGCGGGCATCTTGGTCTGTGCGCGCGTCGCGTGGTG (double strand) [P-36/+120 (text: P-36/+100)]", "values": [{"measurement": "binding", "result": "no binding"}]}, {"sequence": "CATGGTGATCTCCCTAGAGAACCGGGCTCGACACCCGAGCGCGGTAAGGCGGGCATCTTGGTCTGTGCGCGCGTCGCGTGGTGTGATCGTCCCCACAGAAAAC (double strand) [P-56/+47]", "values": [{"measurement": "binding", "result": "binds"}]}]}
